Marks after values point to notes of the source that are not given here. Ends that are not written are not given here.
B1: muscle acylphosphatase: human muscle acylphosphatase protein, forms amyloid fibrils in 25% v/v trifluoroethanol (protein, UniProt P14621 2-99, looked up)
Acylphosphatase-2: STAQSLKSVDYEVFGRVQGVCFRMYTEDEARKIGVVGWVKNTSKGTVTGQVQGPEDKVNSMKSWLSKVGSPSSRIDRTNFSNEKTISKLEYSNFSIRY

Key:
Format in all cases: physicochemical
[1] = Transmission electron microscopy screen for amyloid fibrils (CspB peptides); design: key: (++) strongly positive; (+) weakly positive; (0) no positive evidence; conditions: 2.0 mg/mL peptide
Experimental: Fibril formation and morphology were examined by transmission electron microscopy (EM). Peptide samples were dried onto formvar-and carbon-coated grids and negatively stained with 1% phosphotungstic acid (PTA). Grids were examined in a JEOL JEM-1010 electron microscope at 80 kV excitation voltage.
(§1) Analysis by three independent techniques of samples produced by dilution of concentrated solutions of all three peptides (10.0 mg/mL diluted to 2.0 mg/mL final concentration) from 50% to either 10 or 90% acetonitrile was carried out to screen for the presence of amyloid fibrils.
(§2) Aggregated states of all three peptides produced in 10 and 90% acetonitrile were analysed using these techniques.

[2] = β-sheet content from CD ellipticity at 215 nm; conditions: 0.4 mg/mL
Experimental: CD spectra were recorded on a Jasco J720 spectropolarimeter using quartz cuvettes of 1 mm pathlength, at 1 nm intervals from 195 to 250 nm. Routinely, CD samples were examined 30 min after dilution from the peptide stock solution containing 50% acetonitrile.
Calculation of the β-sheet content was carried out using the ellipticity at 215 nm normalized to a per residue basis (units: deg cm^2/dmol).

[3] = 1D NMR estimate of percentage of peptide visible in solution; conditions: 10 mg/mL in 50% acetonitrile
Experimental: A series of 1D spectra was used to estimate the percentage of peptide visible by solution NMR. These 1D spectra were all acquired with a gain of 7,000 and 256 scans on the same 500 MHz NMR spectrometer, in consecutive experiments. The concentration of a tryptophan solution was calculated from its absorbance at 280 nm. The integration of the indole resonances in these ID spectra from the tryptophan and peptide solutions was used to estimate the concentration of the peptide solutions.
Any small oligomers (whose signals merge with the monomer signal if conformational interconversion takes place on a time scale shorter than that resolvable by this method, i.e. less than ˜100 ms) can only exist as minor populations. […] The remainder must therefore be in large soluble aggregates whose overall tumbling times are too large to give resolvable NMR […].

[4] = Congo red binding assay of amyloid fibril formation (CspB peptides); design: key: (++) strongly positive; (+) weakly positive; (0) no positive evidence
Experimental: For the congo red binding assay of fibril formation, absorption spectra of a 10 μM solution of the dye in the assay buffer (5 mM phosphate pH 7.41 […]) before and after addition of the peptide solution were recorded on a Perkin Elmer (Foster City, Calif.) Lambda 16 spectrometer in the range of 400 to 700 nm.
Analysis by three independent techniques of samples produced by dilution of concentrated solutions of all three peptides ([…]) from 50% to either 10 or 90% acetonitrile was carried out to screen for the presence of amyloid fibrils.
as §2

[5] = Hydrodynamic radii by NMR diffusion measurements (pulse field gradient); conditions: 10 mg/mL peptide in 50% acetonitrile
Experimental: All NMR spectra were acquired at ^1H frequencies of 500 or 600 MHz on homebuilt NMR spectrometers at the Oxford Centre for Molecular Sciences. One dimensional (1D) spectra typically contain 8K complex data points. Two dimensional (2D) experiments were acquired with 2K complex data points in the t2 dimension, and in phase-sensitive mode using time proportional phase incrementation (TPPI) for quadrature detection in t1. Diffusion constants were determined using pulse field gradient experiments with 8K complex points. Spectral widths of 8,000 Hz were used for all experiments. […] The water signal was suppressed either by using presaturation during the 1.2 s relaxation delay or by using a gradient double echo. […] Data were processed using Felix 2.3 (BIOSYM) on Sun workstations. Typically, the data were zero filled once, and processed with a double exponential window function for the 1D, and a sinebell squared function, shifted over 90° for each dimension of the 2D spectra. All spectra were referenced to an internal standard of dioxan at 3,743 ppm.

[6] = Light microscopy of congo red stained precipitates, green birefringence (CspB peptides); design: key: (++) strongly positive; (+) weakly positive; (0) no positive evidence; conditions: 2.0 mg/mL peptide
Experimental: Yellow green birefringence indicates the presence of cross […].
as §1, §2

[7] = Solubility in aqueous buffer or acetonitrile cosolvent; conditions: aqueous buffer; aqueous buffers, pH 6.0 to 7.2, no cosolvent; read-out: Solubility under similar conditions (aqueous buffers)
Experimental: In contrast, none of the three peptides are soluble under similar conditions to any significant extent; CspB-2, for example, dissolves only to ˜0.2 mg/mL. To solubilize the peptides, acetonitrile was used as a cosolvent at pH 4.0 (formic acid, unbuffered). […] A standardized set of combinations of peptide concentration and solvent composition was used, involving peptide concentrations of 0.4, 2 and 10 mg/mL, and acetonitrile concentrations of 10, 50 and 90%.

[8] = Congo Red absorption and birefringence of muscle acylphosphatase aggregate
Experimental: (§3) Muscle acylphosphatase was purified as previously reported (A. Modesti et al. (1995) Protein Express Purif. 6, 799) and incubated at a concentration of 0.375 mg/ml (34 μM) in 25% v/v trifluoroethanol (TFE), acetate buffer, pH 5.5 at 25° C. under constant stirring. Aliquots were withdrawn at regular time intervals for electron microscopy and spectroscopic analysis. Circular dichroism spectra were acquired directly by means of a Jasco J-720 spectropolarimeter and cuvettes of 1 mm path length. Electron micrographs were acquired by a JEM 1010 transmission electron microscope at 80 kV excitation voltage. A 3 μL sample of protein solution was placed and dried for five minutes on a Formvar and carbon-coated grid. The sample was then stained with 3 μL 1% phosphotungstic acid solution and observed at magnifications of 25-100k.
(§4) Thioflavin T and Congo Red assays were performed according to Le Vine III (H. Le Vine III (1995) Amyloid: Int. J. Exp. Clin. Invest. 2,1.) and Klunk (W. E. Klunk et al. (1989) J. Histochem. Cytochem. 37, 1293), respectively. For Congo Red birefringence experiments aliquots of protein were air dried onto glass slides. The resulting films were stained with a saturated solution of Congo red and sodium chloride, corrected to pH 10.0 with 1% sodium hydroxide. The stained slides were examined by an optical microscope between crossed polarizers.

[9] = Thioflavin T assay of muscle acylphosphatase aggregate; conditions: aggregate after two weeks in 25% v/v TFE, pH 5.5, 25° C.
Experimental: as §3, §4

[10] = 10% acetonitrile, first experiment, 1.6 mg/mL peptide
[11] = 10% acetonitrile, second experiment, 2.0 mg/mL peptide
[12] = 90% acetonitrile, first experiment, 1.6 mg/mL peptide
[13] = 90% acetonitrile, second experiment, 2.0 mg/mL peptide
[14] = 10% acetonitrile, first experiment
[15] = 90% acetonitrile, first experiment
[16] = 90% acetonitrile, second experiment

Molecule	Amyloid fibril formation, EM ([1]; 10% acetonitrile)	Amyloid fibril formation, EM ([1]; 90% acetonitrile)	β structure content (CD) ([2]; 90% acetonitrile)	Total peptide concentration detectable in the NMR spectra [3]	Amyloid fibril formation, Congo Red [4, 10]	Amyloid fibril formation, Congo Red [4, 11]	Amyloid fibril formation, Congo Red [4, 12]	Amyloid fibril formation, Congo Red [4, 13]	Hydrodynamic Stokes radius [5]	Amyloid fibril formation, LM green birefringence [6, 14]	Amyloid fibril formation, LM green birefringence ([6]; 10% acetonitrile, second experiment)	Amyloid fibril formation, LM green birefringence [6, 15]	Amyloid fibril formation, LM green birefringence [6, 16]	β-sheet content (CD) ([2]; 2.5% acetonitrile)	β-sheet content (CD) ([2]; 15 to 70% acetonitrile)	β-sheet content (CD) ([2]; 97.5% acetonitrile)	solubility [7]	Congo Red birefringence under cross-polarised light ([8]; fibrils after two weeks of incubation)	Congo Red difference spectrum, maximum intensity ([8]; spectrum of aggregate plus dye minus aggregate alone and dye alone)	Increase of the 482 nm fluorescence (excitation 440 nm) of Thioflavin T [9]
CspB-1: peptide, residues 1-22 of B. subtilis cold shock protein CspB, corresponding to the first two β-strands (MLEGKVKWFNSEKGFGFIEVEG; UniProt P32081 1-22, looked up, fragment)	++	0	~70%	~20%	++, ++	++, ++	++	0	1.60^a nm	++, ++	++, ++	++, ++	++, ++	–	–	–	–	–	–	–
MLEGKVKWFNSEKGFGFIEVEGQDDVFVHFSAIQG [CspB-2]	++	++	–	–	++	0	0	++	1.68 nm	+	–	++	0	100%	~20%	71.5%	~200 µg/mL	–	–	–
B1	–	–	–	–	–	–	–	–	–	–	–	–	–	–	–	–	–	characteristic green birefringence	540 nm	three fold increase

From patent US20060128606A1, “Fibrils” (priority 1998, published 2006)
